Data from the supplement of paper PMC10567573.

B1: TOR1AIP2 (parent)
chain: AGQEGEDTLRRRLLAPEAGSHPQQ
B2: ZNF649 (parent)
chain: MTKAQESLTLEDVAVDFTWEEWQF

Variants of: B1
Assay: protein stability index of a GFP-peptide fusion (GPS, HEK-293T) (PSI 1-6); higher = more stable
Conditions: c terminus: a fixed tail appended
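Note: lentivirally expressed fusions sorted by FACS into six bins by GFP to DsRed ratio, PSI derived from sequencing read proportions per bin multiplied by bin number.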

Compared with P16C, P16D is higher in protein stability index: 4.47 for the first, 5.74 for the second.

First: P16E
Second: P16F
The protein stability index of the first is higher: 5.45 for the first, 4.52 for the second.

Going from P16G to P16H, the protein stability index falls from 5.51 to 4.5.

Compared with P16I, P16K is lower in protein stability index: 5.07 for the first, 5.01 for the second.

Compared with P16L, P16M is lower in protein stability index: 5.32 for the first, 4.81 for the second.

First: P16N
Second: P16Q
The protein stability index of the first is higher: 5.24 for the first, 5.21 for the second.

First: P16R
Second: P16S
The protein stability index of the first is lower: 4.7 for the first, 5.43 for the second.

First: P16T
Second: P16V
The protein stability index of the first is lower: 4.45 for the first, 4.63 for the second.

Going from P16W to P16Y, the protein stability index rises from 3.99 to 4.86.

Compared with E17A, E17C is lower in protein stability index: 4.22 for the first, 3.65 for the second.

Going from E17D to E17F, the protein stability index rises from 2.2 to 3.31.

First: E17G
Second: E17H
The protein stability index of the first is higher: 3.5 for the first, 3.34 for the second.

First: E17I
Second: E17K
The protein stability index of the first is higher: 4.11 for the first, 3.86 for the second.

First: E17L
Second: E17M
The protein stability index of the first is lower: 2.13 for the first, 2.79 for the second.

Compared with E17N, E17P is higher in protein stability index: 3.16 for the first, 5.13 for the second.

Compared with E17Q, E17R is higher in protein stability index: 2.63 for the first, 4.68 for the second.

Compared with E17S, E17T is higher in protein stability index: 4.34 for the first, 4.53 for the second.

First: E17V
Second: E17Y
The protein stability index of the first is higher: 4.57 for the first, 2.44 for the second.

Going from A18C to A18D, the protein stability index rises from 2.48 to 3.62.

First: A18E
Second: A18F
The protein stability index of the first is higher: 3.46 for the first, 2.16 for the second.

First: A18G
Second: A18H
The protein stability index of the first is higher: 3.92 for the first, 3.03 for the second.

First: A18I
Second: A18K
The protein stability index of the first is lower: 1.9 for the first, 3.5 for the second.

First: A18L
Second: A18M
The protein stability index of the first is lower: 1.57 for the first, 2.08 for the second.

Compared with A18N, A18P is higher in protein stability index: 4.09 for the first, 4.77 for the second.

First: A18Q
Second: A18R
The protein stability index of the first is higher: 3.35 for the first, 2.87 for the second.

Going from A18S to A18T, the protein stability index rises from 2.35 to 3.11.

Going from A18V to A18W, the protein stability index falls from 2.75 to 2.21.

Going from A18Y to G19A, the protein stability index rises from 1.43 to 2.23.

Compared with G19C, G19D is higher in protein stability index: 2.15 for the first, 2.83 for the second.

First: G19E
Second: G19F
The protein stability index of the first is higher: 2.15 for the first, 1.86 for the second.

First: G19H
Second: G19I
The protein stability index of the first is lower: 2.22 for the first, 2.54 for the second.

Going from G19K to G19L, the protein stability index falls from 1.86 to 1.72.

Going from G19M to G19N, the protein stability index falls from 3 to 2.27.

Going from G19P to G19Q, the protein stability index falls from 2.69 to 2.13.

First: G19R
Second: G19T
The protein stability index of the first is lower: 2.49 for the first, 2.58 for the second.

Compared with G19V, G19W is lower in protein stability index: 2.37 for the first, 1.31 for the second.

Compared with G19Y, S20A is higher in protein stability index: 1.75 for the first, 2.45 for the second.

First: S20C
Second: S20D
The protein stability index of the first is lower: 1.62 for the first, 3.33 for the second.

Going from S20E to S20F, the protein stability index falls from 2.91 to 1.73.

First: S20G
Second: S20H
The protein stability index of the first is higher: 2.25 for the first, 2.1 for the second.

First: S20I
Second: S20K
The protein stability index of the first is higher: 2.08 for the first, 1.97 for the second.

Going from S20L to S20M, the protein stability index rises from 2.09 to 2.68.

First: S20N
Second: S20P
The protein stability index of the first is lower: 2.02 for the first, 2.53 for the second.

Compared with S20Q, S20R is lower in protein stability index: 2.35 for the first, 2.28 for the second.

Going from S20T to S20V, the protein stability index falls from 2.1 to 1.73.

First: S20W
Second: S20Y
The protein stability index of the first is lower: 2.08 for the first, 2.18 for the second.

Compared with H21A, H21C is higher in protein stability index: 2.53 for the first, 2.69 for the second.

Compared with H21D, H21E is lower in protein stability index: 3.73 for the first, 1.73 for the second.

Going from H21F to H21G, the protein stability index rises from 2.02 to 2.47.

First: H21I
Second: H21K
The protein stability index of the first is higher: 2.96 for the first, 2.58 for the second.

First: H21L
Second: H21M
The protein stability index of the first is higher: 2.27 for the first, 1.88 for the second.

Compared with H21N, H21P is higher in protein stability index: 2.69 for the first, 2.82 for the second.

Going from H21Q to H21R, the protein stability index falls from 2.7 to 2.14.

First: H21S
Second: H21T
The protein stability index of the first is higher: 2.76 for the first, 2.26 for the second.

Going from H21V to H21W, the protein stability index rises from 2.1 to 2.6.

First: H21Y
Second: P22A
The protein stability index of the first is lower: 1.85 for the first, 2.58 for the second.

First: P22C
Second: P22D
The protein stability index of the first is lower: 2.43 for the first, 2.6 for the second.

Compared with P22E, P22F is lower in protein stability index: 2.66 for the first, 2.31 for the second.

Going from P22G to P22H, the protein stability index falls from 2.44 to 1.65.

Compared with P22I, P22K is lower in protein stability index: 2.56 for the first, 2.44 for the second.

First: P22L
Second: P22M
The protein stability index of the first is lower: 2.14 for the first, 2.67 for the second.

Going from P22N to P22Q, the protein stability index falls from 3.24 to 2.34.

Going from P22R to P22S, the protein stability index falls from 2.04 to 1.81.

Compared with P22T, P22V is higher in protein stability index: 1.87 for the first, 2.4 for the second.

Going from P22W to P22Y, the protein stability index falls from 1.94 to 1.52.

First: Q23A
Second: Q23C
The protein stability index of the first is lower: 2.36 for the first, 2.54 for the second.

Compared with Q23D, Q23E is lower in protein stability index: 2.75 for the first, 2.18 for the second.

Going from Q23G to Q23H, the protein stability index rises from 1.78 to 2.01.

First: Q23I
Second: Q23K
The protein stability index of the first is lower: 1.73 for the first, 2.74 for the second.

Compared with Q23L, Q23M is lower in protein stability index: 2.45 for the first, 2.24 for the second.

Compared with Q23N, Q23P is higher in protein stability index: 2.17 for the first, 3.1 for the second.

Going from Q23R to Q23S, the protein stability index falls from 2.54 to 1.85.

Compared with Q23T, Q23V is higher in protein stability index: 1.61 for the first, 2.69 for the second.

Going from Q23W to Q23Y, the protein stability index rises from 1.81 to 2.01.

Going from Q24C to Q24D, the protein stability index rises from 1.85 to 2.38.

Compared with Q24E, Q24F is lower in protein stability index: 2.52 for the first, 2.37 for the second.

Going from Q24H to Q24I, the protein stability index rises from 1.7 to 2.16.

First: Q24L
Second: Q24M
The protein stability index of the first is lower: 1.79 for the first, 2.81 for the second.

Compared with Q24N, Q24P is higher in protein stability index: 2.25 for the first, 2.41 for the second.

Going from Q24R to Q24S, the protein stability index rises from 2.05 to 2.4.

Going from Q24T to Q24V, the protein stability index rises from 2.22 to 2.58.

Going from Q24W to Q24Y, the protein stability index rises from 2.17 to 2.46.

Variants of: B2
Assay: as above
Conditions: c terminus: a fixed tail appended

Going from F17R to Q5C, the protein stability index falls from 3.61 to 2.78.

In the case of S7K, the protein stability index is reported as 3.01.
